Measurements reported in article PMC6465399, “S-nitrosylation of the Peroxiredoxin-2 promotes S-nitrosoglutathione-mediated lung cancer cells apoptosis via AMPK-SIRT1 pathway” (Cell Death & Disease, 2019).

Target: the molecule itself
Experiment: non-reducing SDS-PAGE and immunoblot (dimer/monomer detection); A549 cells untreated or treated with GSNO for 24 h; 100 mM N-ethyl maleimide for 20 min at 37 °C to preserve the Prdx2 redox state; nonreducing lysis buffer (100 mM Tris-HCl pH 6.8, 10% glycerol, 2% SDS) with 100 mM NEM; immunoblot for Prdx2

B1: Peroxiredoxin-2 (enzyme, human (endogenous in A549), UniProt P32119 1-198, looked up)
chain: MASGNARIGKPAPDFKATAVVDGAFKEVKLSDYKGKYVVLFFYPLDFTFVCPTEIIAFSNRAEDFRKLGCEVLGVSVDSQFTHLAWINTPRKEGGLGPLNIPLLADVTRRLSEDYGVLKTDEGIAYRGLFIIDGKGVLRQITVNDLPVGRSVDEALRLVQAFQYTDEHGEVCPAGWKPGSDTIKPNVDDSKEYFSKHN
notes: Peroxiredoxin-2 (Prdx2), endogenous in human A549 lung cancer cells; three cysteines Cys51, Cys70, Cys172; The dimer seen on the non-reducing gel is the disulfide-linked (Cys51-Cys172) form; also called Prdx2; source: endogenous, A549 cells, in lysate
  stoichiometry N: 2
